In PMC3157015 (Biochemical and biophysical research communications, 2011):
No end group written: not given here.

Tests used:
[1] = biological target: T1, Glutaminase Interacting Protein (GIP), recombinant (UniProt O14907 1-124); assay: NMR titration
T1 sequence (looked up): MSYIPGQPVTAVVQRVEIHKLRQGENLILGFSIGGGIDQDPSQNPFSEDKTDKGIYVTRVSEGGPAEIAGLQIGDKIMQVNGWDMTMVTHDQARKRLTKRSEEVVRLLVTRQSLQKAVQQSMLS

[2] = biological target: T1, Glutaminase Interacting Protein (GIP), …; assay: NMR titration; remark: listed apart in the source

KD from residue A66 of GIP [1]: 86.6 µM | KD from residue D38 of GIP [1]: 92.5 µM | KD from residue E17 of GIP [1]: 64.8 µM | KD from residue E62 of GIP [1]: 102 µM | KD from residue E102 of GIP [1]: 118 µM | KD from residue F46 of GIP [1]: 138 µM | KD from residue L71 of GIP [1]: 85.8 µM | KD from residue N81 of GIP [1]: 84.3 µM | KD from residue T86 of GIP [1]: 104 µM | Kd [2]: 97.8 µM
Binder: RDGDFQTEV-OH [BAI2 C-terminal peptide (RDGDFQTEV-COOH)]
